Earlier results, collected in PMC12326988, “Synthetic host defense peptide inhibits SARS-CoV-2 replication in vitro” (Antimicrobial Agents and Chemotherapy, 2025).

Tested on: binding of the SARS-CoV-2 RBD to its human ACE2 receptor

B1: HD5 (peptide, UniProt Q01523 20-94, looked up)
Defensin alpha 5: ESLQERADEATTQKQSGEDNQDLAISFAGNGLSALRTSGSQARATCYCRTGRCATRESLSGVCEISGRLYRLCCR
modifications: Defensin-5
- affinity, interference with binding of SARS-CoV-2 RBD to human ACE2: 76.2 nM
